1 protein from doi:10.1101/2020.04.03.022855 (bioRxiv, 2020) can be followed below.

This data set concerns the molecule itself. Kind of data set: cross-linking.

The stoichiometry N is the number of molecules, sites or subunits per partner or assembly.

B1: Seventeen kilodalton protein (Skp), unlabelled (natural protein, Escherichia coli, UniProt P0AEU7 21-161, looked up)
chain: ADKIAIVNMGSLFQQVAQKTGVSNTLENEFKGRASELQRMETDLQAKMKKLQSMKAGSDRTKLEKDVMAQRQTFAQKAQAFEQDRARRSNEERGKLVTRIQTAVKSVANSQDIDLVVDANAVAYNSSDVKDITADVLKQVK
As to B1, the “stoichiometry N” value was determined as 3.
